Assay results from patent US6465188, “Nucleic acid ligand complexes” (Gilead Sciences, Inc.).

Target: VEGF (vascular endothelial growth factor) (UniProt P15692-4 P15692-4:27-191)
Assay: competition; competition ELISA apparent ED50; reduction attributed to geometry of liposome display
Settings: chain copies: 2

Sequence of VEGF (vascular endothelial growth factor) (P15692 other isoform, or with tags, fused parts or gaps): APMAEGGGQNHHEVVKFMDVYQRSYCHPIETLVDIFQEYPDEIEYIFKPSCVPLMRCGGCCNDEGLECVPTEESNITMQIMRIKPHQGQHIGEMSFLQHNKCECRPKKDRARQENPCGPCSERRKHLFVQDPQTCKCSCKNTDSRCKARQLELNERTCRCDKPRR

B1: NX278-Liposome (mixed)
mixed: TTTTACCCUGAUGGUAGACGCCGGGGUGTTTTT
modifications: 5'-dialkylglycerol (DAG), embedded in DSPC:cholesterol liposome; PS at 1-4 and 29-33; 2'-OMe at 5,13,16,17,20,23-26,28; 2'-NH2 at 6-9,12,15,19,21,22,27
- EC50: ~100 nM
